Measured values: the DeepSol protein solubility set

Assay: soluble on expression in E. coli; label from the status in PepcDB or PDB records
In the case of “MEKQKTFHVAVVGATGAVGEQMLNTLEKREFPIGKLTLLSSKRSAGKKLVFKGEEFTVQEATPESFEGVDIALFSAGGSVSKQLAPEAAKRGAIVVDNTSAFRMTENVPLVVPEVNENDLKEHNGIIANPNCSTIQMVVALEPVRQQYGLKRVIVSTYQAVSGAGAAAIEELHEQSQAILNGEEVKANVLPVSGDKKHFPIAFNAIPQIDKFQDNGFTFEEMKMINETKKIMHMPELEVAATCVRLPVVSGHSESVYIEVEKEGVTVEELKSLLANAEGIVLQDNPEEQLYPMPATAVGKNEVFVGRIRKDLNNDKGFHLWVVSDNLLKGAAWNSVQIAERLVKLQLV”, the “soluble on expression in E. coli” value is reported as “not soluble”. With “MEKVVCIGCGVTIQTEDKTGLGYAPPASLTKENVICQRCFRLKNYNEIQDVSLTDDDFLNILHGIGETDSLVVKIVDIFDFNGSWINGLQRLVGGNPILLVGNKADILPKSLKRERLIQWMKREAKELGLKPVDVFLVSAGRGQGIREVIDAIEHYRNGKDVYVVGCTNVGKSTFINRIIKEVSGEEDIITTSQFPGTTLDAIEIPLDDGSSLYDTPGIINNHQMAHYVNKKDLKILSPKKELKPRTFQLNDQQTLYFGGLARFDYVSGERSPFICYMPNELMIHRTKLENADALYEKHAGELLTPPGKDEMDEFPELVAHTFTIKDKKTDIVFSGLGWVTVHDADKKVTAYAPKGVHVFVRRSLI” the “soluble on expression in E. coli” value was “not soluble”. In the case of “MELGQAMVTVAGIGCRKGAASDAIIAAVRAAERAFGVTVDYLATAPLKADEAGLAEAAKGLSLSLEIVAQERLEAVAAETMTFSQASLDHSGSPSVSEAAALAAAGAGARLVAPRLVVGDVTVAIAMTSDAPHGSRSAIEYGEQE”, the “soluble on expression in E. coli” value is reported as “not soluble”. For “MELKDRIKAARKHAHLSQVQLAQAVGMTQTSISDLERGKSRATSFVAQIAGACGVNPLWLAEGRGEMLAERGQANAGPNASWLGAVESWDDETPLDADEIELPFYKEIELSGGKGSTVILQTGGRKLRFGKYTLRKKNIDPASAACVTVSGNSMEPVLPDGSTVGVDTSARTIKDGDMYAFDHDGQLRVKLLYRLPGGGLRIRSFNSDEHPDERYEPQEAAEHINVIGRVFWYSVLV”, the “soluble on expression in E. coli” value was “not soluble”. For “MELLLLSNSTLPGKAWLEHALPLIANQLNGRRSAVFIPFAGVTQTWDEYTDKTAEVLAPLGVNVTGIHRVADPLAAIEKAEIIIVGGGNTFQLLKESRERGLLAPMADRVKRGALYIGWSAGANLACPTIRTTNDMPIVDPNGFDALDLFPLQINPHFTNALPEGHKGETREQRIRELLVVAPELTVIGLPEGNWIQVSNGQAVLGGPNTTWVFKAGEEAVALEAGHRF”, the “soluble on expression in E. coli” value was “soluble”. For “MELNAVKSSYARWAPIYDKTFGAITNVGRHAAVDYINAHDATELLEVGVGTGLSLPNYRPGLKVTGIDFSEEMLAKARAKVESLGLGHVQSLRQMDARDLDFADASFDVVAAMHIISVVPEPERVMAEMARVCKPGGLIVITNHFARDSGMLARVERFAAPFANLLGWHPDFEISSVLKQPLEHHHHHH”, the “soluble on expression in E. coli” value was “not soluble”. With “MELPSMNVPFSRYCWVTLTIQDHLPIDSFRSLNLSITNDNYSGGDLKAYPADFNGILAGNWFTFSPVTYSMKLQYNYTNGAEEATRVRVYCKSPLPYWLPYCG” the “soluble on expression in E. coli” value was “not soluble”. For “MELQLAIDLLNKEEAAKLAQKVEEYVDIVEIGTPIVINEGLPAVQHLNENINNAKVLADLKIMDAADYEVSQAVKYGADIVTILGVAEDASIKAAVEEAHKHGKALLVDMIAVQNLEQRAKELDEMGADYIAVHTGYDLQAEGKSPLDSLRTVKSVIKNSKVAVAGGIKPDTIKDIVAEDPDLVIVGGGIANADDPVEAAKQCRVAIEG”, the “soluble on expression in E. coli” value was “not soluble”. For “MELSADYLREKLRQDLEAEHVEVEDTTLNRCATSFRVLVVSAKFEGKPLLQRHRLVNECLAEELPHIHAFEQKTLTPEQWTRQRRE”, the “soluble on expression in E. coli” value was “soluble”. For “MELWLVRHGETLWNREGRLLGWTDLPLTAEGEAQARRLKGALPSLPAFSSDLLRARRTAELAGFSPRLYPELREIHFGALEGALWETMDPRYKEALLRFQGFHPPGGESLSAFQERVFRFLEGLKAPAVLFTHGGVVRAVLRALGEDGLVPPGSAVAVDWPRRVLVRLALDGEEATG”, the “soluble on expression in E. coli” value was “soluble”. In the case of “MEMRGKITKINENGLGVLGNILVPFAYPGDEVEVTETRERFGKIIARDFKLMTPSPLRIPGKCSHFGKCGGCLWQGLRYREQLKLKEEIFKRITGIEAEIKGSPRIWYFRNISNFIITVNGIGFKEFGMPKTVVNIRECPIFSERTPKYLKALKDFLRESNLKPWNWREGDVHYLQVREGKFTGEVMVNIIAHVPLNYREALMEAFNFADSIYWSLKADKKDDPRGFPTLVLGNEVIREKVEGITYLIHPSVFFQTNSYALPLLLKSVEKFCEGSKVLDLYSGIGTLSLYLAKRGFEVTGVEVNGTSVEMAKRSAEINSINATFIQGKAEDAELEGYETLIVDPPRKGLKEFSRRIVKKGPNTLIYVSCNPLRFILDYRNYLSEAYKVDDALLIDMFPHTPHIEAVIKLVRR”, the “soluble on expression in E. coli” value is reported as “soluble”. With “MENAPLLFQLPDDDTLYQALLARDPAYEGFAFVGVKSTGVFCRLTCAARKPKRENTVFFGSIKGCVEAGFRACLRCRPLERAGVQEPWVQTLLEQLGRDPERRWYEDDLVAQGLDPSTVRRAFKRYFGVTFLEMARLRRMGQGMQQLASGEPVIEAQISAGFDSDSGFRHAFSRLAGQPPSNLRGRELLKVDWLQTPIGVMLAVADAQVLHLLEFFDRPALANELQNLQKSSGSSIGFGRFAPIDQIEAELQRYFAGEAVHFATPLAMSASPFTRTVWQALRAIPLGTTCSYAEVARQVGSPSAVRAVARANAANQISIVIACHRVIGADGSLTGYGGGLEHHHHHH” the “soluble on expression in E. coli” value was “not soluble”. For “MENNENHEKLNGVLRKFLGDAFTLDGKEGGLNMEKLREAIKKEKPIMNILLMGATGVGKSSLINALFGKEVAKAGVGKPITQHLEKYVDEEKGLILWDTKGIEDKDYENTLESIKKEMEDSFKTLDEKEAIDVAYLCVKETSGRVQERERESYLEHHHHHH”, the “soluble on expression in E. coli” value was “not soluble”. With “MENQEVVLSIDAIQEPEQIKFNMSLKNQSERAIEFQFSTGQKFELVVYDSEHKERYRYSKEKMFTQAFQNLTLESGETYDFSDVWKEVPEPGTYEVKVTFKGRAENLKQVQAVQQFEVKMAGDPLEHHHHHH” the “soluble on expression in E. coli” value was “soluble”. For “MENSDVINFSCLEKELHSALQADRKYQRENDAKFRALNQKVASYEEFRDIVLASHLKPLDRNDISGSPRKQPWNPVACRTNYVCASSEQVQPQLSEVQPRSASEFIRDWRRFAGCSFEKYSLLVSLGGEALQKIFSTEIGLGLLGEFLLILSQCLKSGDEDRVTGVLDGLSKTGRFSINLSLLSQAEQEACEELFNKLKVAAGECHPYKDNSNTSVVCEAGLTHMEDNKTDITTTLKELAGKYGTEK”, the “soluble on expression in E. coli” value was “not soluble”. With “MENSNENDIVLTWWDWGHFVTYYARRSPVAQGSPNSGVAGYYLGLVDNGWAQSLGVDYVIVSLYDILKFEAIVDTAKLSRKWENISRADYGVDFLKLTESTGSILRFDSQYSTLIVKEGNIRVILSGKVVYPREAIIESNGRIKNLKYPARSGVYVYVNLDYGYAILEHHHHHH” the “soluble on expression in E. coli” value was “not soluble”. With “MENSRLMQSMPRTPKFEEEKKTDKDKEKEEKERNGKKTELARAQNKKAQEKDMPRFKQGENQIDTATETYELTSELGQGSFGAVFGVTRKSDKRHFAMKCESVNMKRAILPHEAGVLLALNHLKSPHFLEMVDHGIVNNRFLFVVLKLVGMNLWDMRAHLPDKKYTLTTTLRIAEQTLAGLRDLHRVGFLHRDIKPPNFAIGREEDDTYHTVFLLDFGLCRKIAMKGKDLRTPRKECAFRGTTRYAALAAHDNKEQSRKDDIESWWYMIAEMIVFDIPWKQFRGTDRDNVRGMKWRLRADETYFKFLFRKCCYEQMSAILLYLDQLSYSSIPDYDFVYHHLQAAAIVNNCSAKSPPDWDPKSQHYKGPIYKEREPYIVKSLE” the “soluble on expression in E. coli” value was “not soluble”. In the case of “MEPAGPCGFCPAGEVQPARYTCPRCNAPYCSLRCYRTHGTCAENFY”, the “soluble on expression in E. coli” value is reported as “soluble”. With “MEPGVDGARKQIAEVVAERIERLILDGVLKAGQALPSERRLTEKLGVSRTALREGLRVLWARQIIHTAQGKGSYVAQISQVDAGPLVHLFNSQPRTLYDLLEVRALLESESARLAAIRGTDADFIMIRRRYDEMLAAHGRETDSATHAHLDHAFHLAICQASHNAVLVHTLQSLTDLLLGSVFACVNNLYHREPHKRHIDQQHERLFLAVLAREPEQAHQAARAHVDSVRQSLAEIEQEEQRLVRATLRLEGWV” the “soluble on expression in E. coli” value was “not soluble”. In the case of “MEPTENLDVCLATLRDTDRDRYLACLLSPADKRNALAALYAFNAEIARIRDSVREALPGEVRMQWWRDLVDGNPHGDSQSHPVAAALLTTIEHYRLPRPVLGNMIEARIFDLYDDLFEDRNALEGYAGETASALIQLASLVLSAEDAAHSAEAAGHAGVAQAMAGMLLLMPLHRRRGQVYIPADMLAAAGLDRETFLAGQDRQRIGIAVEIFAAHALDHIEKARRATISKNLFAAYLPVALSGPVIAAARKAGAGVFDGDLQLSQLRRQWLLAKASFLKRF”, the “soluble on expression in E. coli” value is reported as “not soluble”. For “MEPYIKALITDSYEQNKNFFRCRFMKNRRGDECNFVGTFSDTLTHFSIHTKVYLFECEGCTKQVVDFMDLVEHRSPSTGAICRGTVENMRQLRLERMKTIDAHRCRNVFIVGATRSEFEDYLRYKNTHGKQQSFGTPLYNDNEEEQTRHQPQQQRSSTPLAPTTPTPPPPTQAPTNHRELLLDFPLPVDFSRPPPVIPPEYFFNAPSVSQQHHQRSQYQHYAPQPQGNRTPGYVARPITPHGNPKPQNYQIGGGWNPYANPPSAKDAPATVRDNRSPSRPRGDFRRDRSQSRGAETHCQQSYQPPADPLQDRSRNGRSPPMGTHSHYGQNAKPAQNGNTSHYELRSRSRGRATVPMNANFRAGHQTGSSSRLESRSRATASVGARAPSRAPAPSSTSRETRSTRRSPSKGPSAPAYTLPFGGSTPNHEPMDLELEDPVPPPRPDRPRASTSLNTSVSQIKRNEVQTGVYNIRPQRVQDTVQKARTAVGYAGTRNRSPLREADAEEIAATEALKNRFAVKSRGTAKAKANSNRGAALLESIEPTNRKIETAEEREKKQNDLYLEKMRKIREKQRLEQEKIDDVVVDSGNLPTIAPNAAGTPPPQSVAAMLEPKEESEEDEPSTSASVPFQRRMNSPQTHATSYARRSDGKRHPSKSRSSRDDRANRRDRDRDSDGRCGDDRRRDHRSHPYERH”, the “soluble on expression in E. coli” value was “not soluble”. For “MEQIERIAQLYPVIMRVMGRIRSLVHDGMDLTYNQYKMLLTIYDKGSCPLNLLARELGIAMSSASEMVERLVNLGIVYRAVDEDNRRQVIIYTTDRGEELIRELRHGIIENYRQLFARLPEGDQERLATAFETIADVLGKLE”, the “soluble on expression in E. coli” value was “not soluble”. With “MERDERPPSGGGGGGGSAGFLEPPAALPPPPRNGFCQDELAELDPGTNGETDSLTLGQGHIPVSVPDDRAEQRTCLICGDRATGLHYGIISCEGCKGFFKRSICNKRVYRCSRDKNCVMSRKQRNRCQYCRLLKCLQMGMNRKAIREDGMPGGRNKSIGPVQISEEEIERIMSGQEFEEEANHWSNHGDSDHSSPGNRASESNQPSPGSTLSSSRSVELNGFMAFRDQYMGMSVPPHYQYIPHLFSYSGHSPLLPPQARSLDPQSYSLIHQLMSAEDLEPLGTPMLIEDGYAVTQAELFALLCRLADELLFRQIAWIKKLPFFCELSIKDYTCLLSSTWQELILLSSLTVYSKQIFGELADVTAKYSPSDEELHRFSDEGMEVIERLIYLYHKFHQLKVSNEEYACMKAINFLNQDIRGLTSASQLEQLNKRYWYICQDFTEYKYTHQPNRFPDLMMCLPEIRYIAGKMVNVPLEQLPLLFKVVLHSCKTSTVKE” the “soluble on expression in E. coli” value was “not soluble”.
